According to patent US20230310650A1:

Target: human extracellular signal-regulated kinase 1/2 (Erk) (human) (UniProt P27361)
Assay: cell-based or functional assay

Chain of UniProt P27361 (P27361 2-379 limits assumed, chain 1 of 2): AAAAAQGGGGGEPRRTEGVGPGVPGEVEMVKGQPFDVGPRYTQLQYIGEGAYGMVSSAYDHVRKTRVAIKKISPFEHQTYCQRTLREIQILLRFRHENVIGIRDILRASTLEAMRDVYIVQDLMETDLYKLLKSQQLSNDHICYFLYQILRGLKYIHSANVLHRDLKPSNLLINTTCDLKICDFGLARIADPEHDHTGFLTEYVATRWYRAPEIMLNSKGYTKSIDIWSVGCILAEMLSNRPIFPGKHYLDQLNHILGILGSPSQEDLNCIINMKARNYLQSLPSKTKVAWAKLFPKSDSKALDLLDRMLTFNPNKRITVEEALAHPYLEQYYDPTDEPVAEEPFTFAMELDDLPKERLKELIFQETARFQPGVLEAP
Chain of UniProt P27361 (P28482 2-360 limits assumed, chain 2 of 2, further chain): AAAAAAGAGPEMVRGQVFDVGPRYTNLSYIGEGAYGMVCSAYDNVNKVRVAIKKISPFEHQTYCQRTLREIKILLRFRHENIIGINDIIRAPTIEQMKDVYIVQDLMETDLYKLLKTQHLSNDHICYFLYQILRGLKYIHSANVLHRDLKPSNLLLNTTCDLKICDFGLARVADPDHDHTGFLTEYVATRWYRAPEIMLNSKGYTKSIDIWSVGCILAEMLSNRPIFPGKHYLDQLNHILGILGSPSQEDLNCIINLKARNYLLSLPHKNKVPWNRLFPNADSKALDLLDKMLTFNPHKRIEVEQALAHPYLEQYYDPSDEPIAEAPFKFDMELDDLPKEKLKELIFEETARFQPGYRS

MAPK phosphothreonine lyase OspF of Shigella flexneri, expressed from pGB4 as a fusion to TEM-1 (from UniProt Q8VSP9 1-239)
decrease in p-Erk percentages of live t-Erk positive T cells (flow cytometry) after infection with E. coli TOP10 pGB4: > 60%
